{"source": "patent US20100331262A1", "about": "(KAGOSHIMA UNIVERSITY, published 2010)", "binders": {"B1": {"name": "pepB6-L1 (peptide)", "peptide": "GMLDIFAPIRHV"}, "B2": {"name": "pepD1-C18 (peptide)", "peptide": "CFGHEPWMC"}, "B3": {"name": "pepD1-C11 (peptide)", "peptide": "CFGHKPWMC"}, "B4": {"name": "pepD1-L20 (peptide)", "peptide": "NPLDFYAPSILP"}, "B5": {"name": "unrelated control peptide (GSGGGSCGYWRSEWGLCG) (peptide)", "peptide": "GSGGGSCGYWRSEWGLCG", "notes": "also called unrelated peptide"}, "B6": {"name": "pepD1-L6 (peptide)", "peptide": "SSIIDILLPPIY"}, "B7": {"name": "pepD1-L5 (peptide)", "peptide": "GSPFLDLLAPAA", "notes": "also called pepD1-L9; pepD1-L5, L9"}, "B8": {"name": "pepD1-L7 (peptide)", "peptide": "SILDILSPRLAE"}, "B9": {"name": "pepD1-L13 (peptide)", "peptide": "GNTLLDTLVPLI"}, "B10": {"name": "pepD1-C3 (peptide)", "peptide": "CQGHLPWMC"}, "B11": {"name": "pepB7-C15 (peptide)", "peptide": "CYGTKPWMC", "notes": "also called pepB6-C2, C5, C6, C7, C8, C9, C10, and C15; pepD1-C5, C7, and C20"}, "B12": {"name": "pepD1-C2 (peptide)", "peptide": "CYGTEPWMC", "notes": "also called pepD1-C13; pepD1-C2, C13"}, "B13": {"name": "pepB6-L10 (peptide)", "peptide": "TSPILDVLTPPR"}, "B14": {"name": "pepD1-C8 (peptide)", "peptide": "CFGRLPWMC"}, "B15": {"name": "pepD1-C10 (peptide)", "peptide": "CFGSLPWMC"}}, "key": {"[1]": {"target": "T1, B6 scFv", "T1 construct": "also called clone B6 of WO 2005/105998", "T1 sequence (VH, as listed by the source, chain 1 of 2)": "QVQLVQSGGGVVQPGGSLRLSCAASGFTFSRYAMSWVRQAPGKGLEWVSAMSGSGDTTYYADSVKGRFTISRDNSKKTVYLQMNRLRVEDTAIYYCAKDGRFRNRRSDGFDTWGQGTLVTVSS", "T1 sequence (VL, as listed by the source, chain 2 of 2)": "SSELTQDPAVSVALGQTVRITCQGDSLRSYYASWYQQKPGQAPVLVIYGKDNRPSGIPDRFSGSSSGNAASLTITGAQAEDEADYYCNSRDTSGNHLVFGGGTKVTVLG", "test": "phage panning and phage ELISA on coated scFv"}, "[2]": {"target": "T2, D1 scFv", "T2 construct": "also called clone D1 of WO 2005/105998", "T2 sequence (VH, as listed by the source, chain 1 of 2)": "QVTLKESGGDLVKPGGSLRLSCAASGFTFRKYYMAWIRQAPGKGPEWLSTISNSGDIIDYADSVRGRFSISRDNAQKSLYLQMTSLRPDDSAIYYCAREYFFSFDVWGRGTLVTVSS", "T2 sequence (VL, as listed by the source, chain 2 of 2)": "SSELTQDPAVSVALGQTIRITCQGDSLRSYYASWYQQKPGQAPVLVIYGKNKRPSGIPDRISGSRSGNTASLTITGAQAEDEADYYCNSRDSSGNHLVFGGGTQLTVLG", "test": "phage panning on coated scFv, clones confirmed by phage ELISA"}, "[3]": {"target": "T3, Aβ oligomers or Aβ fibers formed 1.5 hours after the dissolution of Aβ1-42 (UniProt P05067 672-713)", "T3 construct": "domain: Aβ1-42; Aggregated conformers of Aβ1-42 after 1.5 h at 40 µM in 20 mM phosphate buffer pH 7.0; The number of copies is not defined; also called Aβ conformers (Aβ oligomers and Aβ fibers)", "T3 sequence (P05067 672-713 limits assumed)": "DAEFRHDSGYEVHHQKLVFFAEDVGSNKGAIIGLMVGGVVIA", "test": "precipitation with streptavidin-magnet beads, Western blot with anti-Aβ antibodies"}, "[4]": {"target": "T4, B7 scFv", "T4 construct": "also called clone B7 of WO 2005/105998", "T4 sequence (VH, as listed by the source, chain 1 of 2)": "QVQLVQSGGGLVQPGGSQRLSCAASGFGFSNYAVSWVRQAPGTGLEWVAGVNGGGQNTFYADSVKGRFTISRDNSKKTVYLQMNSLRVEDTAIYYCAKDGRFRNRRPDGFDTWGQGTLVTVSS", "T4 sequence (VL, as listed by the source, chain 2 of 2)": "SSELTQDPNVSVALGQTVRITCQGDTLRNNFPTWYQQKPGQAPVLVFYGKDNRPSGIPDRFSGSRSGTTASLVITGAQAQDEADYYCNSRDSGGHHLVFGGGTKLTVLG", "test": "phage panning on coated scFv, clones confirmed by phage ELISA"}, "[5]": {"target": "T1, B6 scFv", "test": "phage panning on coated scFv, clones confirmed by phage ELISA"}}}
{"binder": "B1", "values": [{"measurement": "binding result", "setting": "[1]", "value": "binds"}]}
{"binder": "B2", "values": [{"measurement": "binding result", "setting": "[2]", "value": "binds"}]}
{"binder": "B3", "values": [{"measurement": "binding result", "setting": "[2]", "value": "binds"}]}
{"binder": "B4", "values": [{"measurement": "binding result", "setting": "[2]", "value": "binds"}]}
{"binder": "B5", "values": [{"measurement": "binding result", "setting": "[3]", "value": "no binding"}]}
{"binder": "B6", "values": [{"measurement": "binding result", "setting": "[2]", "value": "binds"}]}
{"binder": "B7", "values": [{"measurement": "binding result", "setting": "[2]", "value": "binds"}]}
{"binder": "B8", "values": [{"measurement": "binding result", "setting": "[2]", "value": "binds"}]}
{"binder": "B9", "values": [{"measurement": "binding result", "setting": "[2]", "value": "binds"}]}
{"binder": "B10", "values": [{"measurement": "binding result", "setting": "[2]", "value": "binds"}]}
{"binder": "B11", "values": [{"measurement": "binding result", "setting": "[4]", "value": "binds"}, {"measurement": "binding result", "setting": "[5]", "value": "binds"}, {"measurement": "binding result", "setting": "[2]", "value": "binds"}]}
{"binder": "B12", "values": [{"measurement": "binding result", "setting": "[2]", "value": "binds"}]}
{"binder": "B13", "values": [{"measurement": "binding result", "setting": "[1]", "value": "binds"}]}
{"binder": "B14", "values": [{"measurement": "binding result", "setting": "[2]", "value": "binds"}]}
{"binder": "B15", "values": [{"measurement": "binding result", "setting": "[2]", "value": "binds"}]}
